Consider two proteins from article doi:10.1101/2024.06.27.600912 (bioRxiv, 2024).

The data set deals with the molecule itself. Nature of the data set: cryo-EM structure.

B1: MORC2 phosphodead mutant (S725A, S730A, S739A, S743A, S777A, S779A), full length (natural protein)
chain: MAFTNYSSLNRAQLTFEYLHTNSTTHEFLFGALAELVDNARDADATRIDIYAERREDLRGGFMLCFLDDGAGMDPSDAASVIQFGKSAKRTPESTQIGQYGNGLKSGSMRIGKDFILFTKKEDTMTCLFLSRTFHEEEGIDEVIVPLPTWNARTREPVTDNVEKFAIETELIYKYSPFRTEEEVMTQFMKIPGDSGTLVIIFNLKLMDNGEPELDIISNPRDIQMAETSPEGTKPERRSFRAYAAVLYIDPRMRIFIHGHKVQTKRLSCCLYKPRMYKYTSSRFKTRAEQEVKKAEHVARIAEEKAREAESKARTLEVRLGGDLTRDSRVMLRQVQNRAITLRREADVKKRIKEAKQRALKEPKELNFVFGVNIEHRDLDGMFIYNCSRLIKMYEKVGPQLEGGMACGGVVGVVDVPYLVLEPTHNKQDFADAKEYRHLLRAMGEHLAQYWKDIAIAQRGIIKFWDEFGYLSANWNQPPSSELRYKRRRAMEIPTTIQCDLCLKWRTLPFQLSSVEKDYPDTWVCSMNPDPEQDRCEASEQKQKVPLGTFRKDMKTQEEKQKQLTEKIRQQQEKLEALQKTTPIRSQADLKKLPLEVTTRPSTEEPVRRPQRPRSPPLPAVIRNAPSRPPSLPTPRPASQPRKAPVISSTPKLPALAAREEASTSRLLQPPEAPRKPANTLVKTASRPAPLVQQLSPSLLPNSKSPREVPSPKVIKTPVVKKTEAPIKLAPATPSRKRAVAVADEEEVEEEAERRKERCKRGRFVVKEEKKDSNELADAAGEEDSADLKRAQKDKGLHVEVRVNREWYTGRVTAVEVGKHVVRWKVKFDYVPTDTTPRDRWVEKGSEDVRLMKPPSPEHQSLDTQQEGGEEEVGPVAQQAIAVAEPSTSECLRIEPDTTALSTNHETIDLLVQILRNCLRYFLPPSFPISKKQLSAMNSDELISFPLKEYFKQYEVGLQNLCNSYQSRADSRAKASEESLRTSERKLRETEEKLQKLRTNIVALLQKVQEDIDINTDDELDAYIEDLITKGD
Take B1: the binding result is “binds”.

B2: full-length MORC2 ATPase-dead mutant S87A (natural protein)
chain: MAFTNYSSLNRAQLTFEYLHTNSTTHEFLFGALAELVDNARDADATRIDIYAERREDLRGGFMLCFLDDGAGMDPSDAASVIQFGKAAKRTPESTQIGQYGNGLKSGSMRIGKDFILFTKKEDTMTCLFLSRTFHEEEGIDEVIVPLPTWNARTREPVTDNVEKFAIETELIYKYSPFRTEEEVMTQFMKIPGDSGTLVIIFNLKLMDNGEPELDIISNPRDIQMAETSPEGTKPERRSFRAYAAVLYIDPRMRIFIHGHKVQTKRLSCCLYKPRMYKYTSSRFKTRAEQEVKKAEHVARIAEEKAREAESKARTLEVRLGGDLTRDSRVMLRQVQNRAITLRREADVKKRIKEAKQRALKEPKELNFVFGVNIEHRDLDGMFIYNCSRLIKMYEKVGPQLEGGMACGGVVGVVDVPYLVLEPTHNKQDFADAKEYRHLLRAMGEHLAQYWKDIAIAQRGIIKFWDEFGYLSANWNQPPSSELRYKRRRAMEIPTTIQCDLCLKWRTLPFQLSSVEKDYPDTWVCSMNPDPEQDRCEASEQKQKVPLGTFRKDMKTQEEKQKQLTEKIRQQQEKLEALQKTTPIRSQADLKKLPLEVTTRPSTEEPVRRPQRPRSPPLPAVIRNAPSRPPSLPTPRPASQPRKAPVISSTPKLPALAAREEASTSRLLQPPEAPRKPANTLVKTASRPAPLVQQLSPSLLPNSKSPREVPSPKVIKTPVVKKTESPIKLSPATPSRKRSVAVSDEEEVEEEAERRKERCKRGRFVVKEEKKDSNELSDSAGEEDSADLKRAQKDKGLHVEVRVNREWYTGRVTAVEVGKHVVRWKVKFDYVPTDTTPRDRWVEKGSEDVRLMKPPSPEHQSLDTQQEGGEEEVGPVAQQAIAVAEPSTSECLRIEPDTTALSTNHETIDLLVQILRNCLRYFLPPSFPISKKQLSAMNSDELISFPLKEYFKQYEVGLQNLCNSYQSRADSRAKASEESLRTSERKLRETEEKLQKLRTNIVALLQKVQEDIDINTDDELDAYIEDLITKGD
In the case of B2, the binding result was “binds”.
